The values that follow are results of earlier work, collected in publication PMC7763558.

What all share (assay): SPR
The target of series [1] is BPTI (native client) (Bos taurus) (UniProt P00974).
In series [2] the target is BPTI (partially folded client) (Bos taurus) (UniProt P00974).
For series [3], the target named is BPTI (unfolded client) (Bos taurus) (UniProt P00974).

pKd: −log10 of the molar value.

Broadly, the pKd is −log10 of the Kd, conventionally taken in molar units. Consider PDI (from UniProt P07237), for which the negative logarithm of the Kd (pKd) is 3.40 in series [1], 4.85 in series [2] and 5.52 in series [3].
